Numbering of substitutions follows the chain as printed. Numbers in names are those of the source. Each block holds one molecule with its values, some of them ahead of it.
Columns and labels:
Format in all cases: biochemical
[1] = Oxidase activity testing against ruxolitinib; conditions: substrate Ruxolitinib; Batch 2
Experimental: (§1) Lyophilised material of recombinant P450, ferredoxin and ferredoxin reductase proteins was made as described in Example 4 and reconstituted in high purity water to the original volume. Biocatalysis was performed with shaking incubation at 27° C. in the following conditions: 100 mM potassium phosphate pH 8.0, 5 mM MgCl2 (both present in the reconstituted enzyme preparation) and 0.1 mg/ml substrate compound such as ambroxide (Sigma-Aldrich, UK), carbamazepine (Sigma-Aldrich, UK), diclofenac (Sigma-Aldrich, UK), tivantinib (MedChemtronica, Sweden), clarithromycin (Tokyo Chemical Industry, Japan), sclareol (Sigma-Aldrich, UK), celecoxib (LC Laboratories, USA), buparvaquone (Sigma-Aldrich, UK), BIRB796 (MedChemExpress, USA), vanoxerine (CiVentiChem, USA), valsartan (Tokyo Chemical Industry, Japan), ruxolitinib (LC Laboratories, USA), perindopril (Selleckchem, USA), solifenacin (Key Organics, UK), 7-ethoxycoumarin (Tokyo Chemical Industry, Japan), tofacitinib (LC Laboratories, USA), ebastine (Key Organics, UK), efavirenz (Key Organics, UK), propanalol (Sigma-Aldrich, UK) and tolbutamide (Key Organics, UK).
(§2) Concentrations of P450, ferredoxin and ferredoxin reductase were as extracted (Example 4). Reactions were initiated by addition of 10× stock of cofactor mixture (50 mM G6P, 10 mM NADP+, 10 UN/ml G6PDH) to provide a final volume of e.g., 10 μl to 90 μl for 100 μl total reaction volumes. After 16-20 hours, reactions were extracted with an equal volume of acetonitrile, centrifuged to remove precipitated proteins and conversion assessed by UPLC-MS analysis.
(§3) UPLC Data were Obtained as Follows: • Column: Acquity UPLC BEH Shield RP18 1.7 μm 2.1 mm i.d. 50 mm length • Solvents: H2O, B: Acetonitrile, both with 0.1% Formic acid • Flow rate: 1.0 ml/min • Detector: Waters Acquity UPLC PDA (UV-Vis detection) and Waters Acquity UPLC QDA (MS)
(§4) Representative results for the % conversions of various substrates to products by enzymes with mutations at position T109 or L198 and double mutants at T109 and 1129/L198 are shown in Table 4 below.

[2] = Oxidase activity testing against celecoxib; conditions: substrate Celecoxib; Batch 2
Experimental: as §1, §2, §3, §4

[3] = Oxidase activity testing against sclareol; conditions: substrate Sclareol; Batch 2; UPLC-MS UV or MS peak areas
Experimental: as §1, §2, §3, §4

[4] = Oxidase activity testing against efavirenz; conditions: substrate Efavirenz; Batch 2
Experimental: as §1, §2, §3, §4

[5] = Oxidase activity testing against BIRB796; conditions: substrate BIRB796; Batch 2
Experimental: as §1, §2, §3, §4

[6] = Oxidase activity testing against 7-ethoxycoumarin; conditions: for Average % conversion: substrate 7-ethoxycoumarin, Batch 2
Experimental: as §1, §2, §3, §4

[7] = Oxidase activity testing against tolbutamide; conditions: for Average % conversion: substrate Tolbutamide, Batch 2
Experimental: as §1, §2, §3, §4

[8] = Oxidase activity testing against valsartan; conditions: substrate Valsartan; Batch 2
Experimental: as §1, §2, §3, §4

[9] = Oxidase activity testing against vanoxerine; conditions: substrate Vanoxerine; Batch 2
Experimental: as §1, §2, §3, §4

[10] = Oxidase activity testing against ebastine; conditions: for Average % conversion: substrate Ebastine, Batch 2
Experimental: as §1, §2, §3, §4

[11] = Oxidase activity testing against propanalol; conditions: substrate Propanalol; Batch 2
Experimental: as §1, §2, §3, §4

[12] = Oxidase activity testing against solifenacin; conditions: for Average % conversion: substrate Solifenacin, Batch 2
Experimental: as §1, §2, §3, §4

[13] = Oxidase activity testing against perindopril; conditions: for Average % conversion: substrate Perindopril, Batch 2
Experimental: as §1, §2, §3, §4

[14] = Oxidase activity testing against tofacitinib; conditions: substrate Tofacitinib; Batch 2
Experimental: as §1, §2, §3, §4

[15] = Oxidase activity testing against clarithromycin; conditions: substrate Clarithromycin; Batch 2
Experimental: as §1, §2, §3, §4

[16] = Oxidase activity testing against carbamazepine; conditions: for +16 Da (1.18 min) 253 m/z: 2-hydroxycarbamazepine; for +16 Da (1.18 min) 253 m/z / +16 Da (1.14 min) 253 m/z / Parent (1.31 min) 237 m/z: relative MS peak area; for +16 Da (1.14 min) 253 m/z: carbamazepine epoxide; for Parent (1.31 min) 237 m/z: remaining carbamazepine, 0.1 mg/ml, 27° C., 16-20 hours; for Average % conversion: substrate carbamazepine, relative MS peak areas
Experimental: as §1, §2, §3
(§5) To confirm the identities of reaction products where known, their chromatographic retention time, mass and ultraviolet spectra were compared with those of authentic metabolite standards.
Representative results for the % conversions of carbamazepine to oxidised (+16 Da) products for single point mutants at position L198 are shown in Table 3 below.

[17] = Oxidase activity testing, lyophilised recombinant P450/ferredoxin SeuF08/ferredoxin reductase SCF15A against ambroxide; conditions: for +16 Da (1.50 min) 253 m/z / +16 Da (1.60 min) 253 m/z / +16 Da (2.04 min) 253 m/z: oxidised ambroxide product; for +16 Da (1.50 min) 253 m/z / +16 Da (1.60 min) 253 m/z / +16 Da (2.04 min) 253 m/z / Ambroxide (2.22 min) 237 m/z: relative MS peak area; for Ambroxide (2.22 min) 237 m/z: remaining substrate, 0.1 mg/ml ambroxide, 27° C., 16-20 hours; for Average % conversion: substrate ambroxide, relative MS peak areas
Experimental: as §1, §2, §3, §5
Representative results for the % conversions of ambroxide to oxidised (+16 Da) products for single point mutants at position T109 are shown in Table 2 below.

[18] = Oxidase activity testing against buparvaquone
Experimental: as §1, §2, §3, §4

B1: M30: P450SeuC10 with L198F and T109F double mutations, SEQ ID NO: 126 (protein)
chain: MKIGTTHLTRLRGLSMTELTDITGPAAQAETVAFPQDRTCPYHPPTGYDPLRDGRPLSRVTLYDGREVWLVTAQATARALLADPRLSTDRRRDGFPVPTPRFAAGRDRFLALLGLDDPEHHRQRRLLIPSFTLKRATAQRPWIQRIVDELLDAMIARGPVADLVSAFALPVPSMVICELLGVPYADHEFFEEQSRRLFRGPTGADTTDARDRLEAYLGDLIDAKAKEAEPGDGILDDLVHNRLRAGELDRSVLVSLAVILLVAGHETTANMISLGTYTLLQHPERLAELRADPSLLPAVVEELLRMLSIAEGLQRLALEDIEIDGITIRAGEGVLFSTSVINRDTAVYEDPDDLDFHRADRHHVAFGFGIHQCLGQNLARAELEIALGSLFTRLPGLRLAAPAEEIPFKPGDTVQGMLELPVTW
modifications: SeuC10M30
Average % conversion [1]: 99.1%
Average % conversion [2]: 21.6%
Average % conversion [3]: 31%
Average % conversion [4]: 0%
Average % conversion [5]: 38.5%
Average % conversion [6]: 38%
Average % conversion [7]: 35.7%
Average % conversion [8]: 17.1%
Average % conversion [9]: 79.1%
Average % conversion [10]: 9.7%
Average % conversion [11]: 0%
Average % conversion [12]: 3%
conversion of perindopril compared to wild-type (in words) [13]: significantly increased conversion
Average % conversion [13]: 61.4%
Average % conversion [14]: 33.3%
Average % conversion [15]: 0.9%

B2: SeuC10M14: P450SeuC10 with L198V mutation, SEQ ID NO: 32 (protein)
chain: B1 chain with F109T, F198V
modifications: SeuC10M14
+16 Da (1.18 min) 253 m/z [16]: 0.0%
+16 Da (1.14 min) 253 m/z [16]: 43.7%
Parent (1.31 min) 237 m/z [16]: 56.3%
Average % conversion [16]: 43.7%

B4: SeuC10M26: P450SeuC10 with T109I mutation, SEQ ID NO: 56 (protein)
chain: B1 chain with F109I, F198L
modifications: SeuC10M26
+16 Da (1.50 min) 253 m/z [17]: 58.3%
+16 Da (1.60 min) 253 m/z [17]: 0.0%
+16 Da (2.04 min) 253 m/z [17]: 0.0%
Ambroxide (2.22 min) 237 m/z [17]: 41.7%
Average % conversion [17]: 58.3%

B7: SeuC10M12: P450SeuC10 with L198M mutation, SEQ ID NO: 28 (protein)
chain: B1 chain with F109T, F198M
modifications: SeuC10M12
+16 Da (1.18 min) 253 m/z [16]: 0.0%
+16 Da (1.14 min) 253 m/z [16]: 40.5%
Parent (1.31 min) 237 m/z [16]: 59.5%
Average % conversion [16]: 40.5%

B8: SeuC10M27: P450SeuC10 with T109V mutation, SEQ ID NO: 58 (protein)
chain: B1 chain with F109V, F198L
modifications: SeuC10M27
+16 Da (1.50 min) 253 m/z [17]: 58.6%
+16 Da (1.60 min) 253 m/z [17]: 0.9%
+16 Da (2.04 min) 253 m/z [17]: 2.3%
Ambroxide (2.22 min) 237 m/z [17]: 38.2%
Average % conversion [17]: 61.7%

B9: SeuC10M8: P450SeuC10 with L198I mutation, SEQ ID NO: 20 (protein)
chain: B1 chain with F109T, F198I
modifications: SeuC10M8
+16 Da (1.18 min) 253 m/z [16]: 0.0%
+16 Da (1.14 min) 253 m/z [16]: 35.3%
Parent (1.31 min) 237 m/z [16]: 64.7%
Average % conversion [16]: 35.3%

B10: M53: P450SeuC10 with T109P mutation, SEQ ID NO: 124 (protein)
chain: B1 chain with F109P, F198L
modifications: SeuC10M53
Average % conversion [1]: 98.6%
Average % conversion [2]: 39.1%
Average % conversion [3]: 52.7%
Average % conversion [4]: 1.8%
Average % conversion [5]: 36.3%
conversion of 7-ethoxycoumarin compared to wild-type (in words) [6]: significantly increased conversion
Average % conversion [6]: 67.2%
conversion of tolbutamide compared to wild-type (in words) [7]: significantly increased conversion
Average % conversion [7]: 77.6%
Average % conversion [8]: 14.3%
Average % conversion [9]: 44.5%
product at 1.38 minutes from ebastine ([10]; FIG. 9): increased production
Average % conversion [10]: 17.4%
conversion of solifenacin compared to wild-type (in words) [12]: significantly increased conversion
Average % conversion [12]: 33.6%
Average % conversion [13]: 46.5%
Average % conversion [14]: 67.5%
conversion of buparvaquone compared to wild-type (in words) [18]: significantly increased conversion
product at 1.97 minutes from buparvaquone (hydroxylation of a t-butyl methyl group) ([18]; FIG. 8): increased production
Average % conversion ([18]; substrate Buparvaquone, Batch 2): 54.7%

B11: SeuC10M1: P450SeuC10 with T109R mutation, SEQ ID NO: 6 (protein)
chain: B1 chain with F109R, F198L
modifications: SeuC10M1
+16 Da (1.50 min) 253 m/z [17]: 40.7%
+16 Da (1.60 min) 253 m/z [17]: 0.0%
+16 Da (2.04 min) 253 m/z [17]: 0.0%
Ambroxide (2.22 min) 237 m/z [17]: 59.3%
Average % conversion [17]: 40.7%

More lines, main results first:

+16 Da (1.18 min) 253 m/z [16]: 0.0%
+16 Da (1.14 min) 253 m/z [16]: 3.2%
Parent (1.31 min) 237 m/z [16]: 96.8%
B3: SeuC10M17: P450SeuC10 with L198D mutation, SEQ ID NO: 38 (protein)
chain: B1 chain with F109T, F198D
modifications: SeuC10M17
Average % conversion [16]: 3.2%

+16 Da (1.18 min) 253 m/z [16]: 0.0%
+16 Da (1.14 min) 253 m/z [16]: 14.6%
Parent (1.31 min) 237 m/z [16]: 85.4%
B5: SeuC10M18: P450SeuC10 with L198H mutation, SEQ ID NO: 40 (protein)
chain: B1 chain with F109T, F198H
modifications: SeuC10M18
Average % conversion [16]: 14.6%

+16 Da (1.18 min) 253 m/z [16]: 0.0%
+16 Da (1.14 min) 253 m/z [16]: 3.9%
Parent (1.31 min) 237 m/z [16]: 96.1%
B6: SeuC10M19: P450SeuC10 with L198Y mutation, SEQ ID NO: 42 (protein)
chain: B1 chain with F109T, F198Y
modifications: SeuC10M19
Average % conversion [16]: 3.8%

+16 Da (1.18 min) 253 m/z [16]: 0.0%
+16 Da (1.14 min) 253 m/z [16]: 1.9%
Parent (1.31 min) 237 m/z [16]: 98.1%
B12: SeuC10M16: P450SeuC10 with L198N mutation, SEQ ID NO: 36 (protein)
chain: B1 chain with F109T, F198N
modifications: SeuC10M16
Average % conversion [16]: 1.9%

From US20240263208A1, “CYTOCHROME P450 ENZYME” (HYPHA DISCOVERY LTD., priority 2021, published 2024)
